Data published in IntAct's records for PubMed 16365431.

B1: Inhibitor of nuclear factor kappa-B kinase subunit beta (Homo sapiens), O14920 (parent)
chain: MSWSPSLTTQTCGAWEMKERLGTGGFGNVIRWHNQETGEQIAIKQCRQELSPRNRERWCLEIQIMRRLTHPNVVAARDVPEGMQNLAPNDLPLLAMEYCQGGDLRKYLNQFENCCGLREGAILTLLSDIASALRYLHENRIIHRDLKPENIVLQQGEQRLIHKIIDLGYAKELDQGSLCTSFVGTLQYLAPELLEQQKYTVTVDYWSFGTLAFECITGFRPFLPNWQPVQWHSKVRQKSEVDIVVSEDLNGTVKFSSSLPYPNNLNSVLAERLEKWLQLMLMWHPRQRGTDPTYGPNGCFKALDDILNLKLVHILNMVTGTIHTYPVTEDESLQSLKARIQQDTGIPEEDQELLQEAGLALIPDKPATQCISDGKLNEGHTLDMDLVFLFDNSKITYETQISPRPQPESVSCILQEPKRNLAFFQLRKVWGQVWHSIQTLKEDCNRLQQGQRAAMMNLLRNNSCLSKMKNSMASMSQQLKAKLDFFKTSIQIDLEKYSEQTEFGITSDKLLLAWREMEQAVELCGRENEVKLLVERMMALQTDIVDLQRSPMGRKQGGTLDDLEEQARELYRRLREKPRDQRTEGDSQEMVRLLLQAIQSFEKKVRVIYTQLSKTVVCKQKALELLPKVEEVVSLMNEDEKTVVRLQEKRQKELWNLLKIACSKVRGPVSGSPDSMNASRLSQPGQLMSQPSTASNSLPEPAKKSEELVAEAHNLCTLLENAIQDTVREQDQSFTALDWSWLQTEEEEHSCLEQAS

Variants of: B1
Settings: with ikba_human NFKBIA

Row | effect of a mutation on the interaction | Variant
1 | disrupting interaction | K44M
